This is an account of results in paper PMC10069166 (Heliyon, 2023).

Where two headings read alike, the source gives them in different places.

Holding throughout (assay): BLI
(In BLI a coated tip is dipped into the sample, and binding shifts an interference pattern.)

The target of experiment [1] is T1, SARS-CoV-2 B.1.617.2 Spike S1+S2 trimer (ECD, His tag) (SARS-CoV-2, Delta (B.1.617.2), L452R | T478K).
Experiment [2] addresses SARS-CoV-2 Spike Trimer, His Tag (BA.5/Omicron) (SARS-CoV-2, Omicron BA.5, strain).
Experiment [3] addresses Wild-type SARS-CoV-2 full length spike trimer (SARS-CoV-2, wild type (Wuhan-Hu-1), UniProt P0DTC2).
In experiment [4] the target is Wuhan S6P SARS-CoV-2 full length spike trimer (SARS-CoV-2, Wuhan, UniProt P0DTC2, stabilised).
Experiment [5] concerns the target T1, SARS-CoV-2 B.1.617.2 Spike S1+S2 trimer …. This is another data set of the same source.

By Kd is commonly meant the equilibrium constant for the complex coming apart. Low readings indicate a tighter complex, high ones a looser complex.

B1: 80R_5 antibody (antibody, V domains shown)
VH: EVQLVQSGGGVVQPGKSLRLSCKASGFAFSNYAMHWVRQAPGKGLEWVAVISYDGSYKYYADSVKGRFTISRDNSKNTLYLQMNSLRAEDTAVYYCARDRSYYLDYWGQGTLVTVSS
VL: TTLTQSPATLSLSPGERATLSCKASEDIGTALAWYQQKPGQAPRPLIFDGAILAPGIPDRFSGSGSGTDFTLTISRLEPEDFAVYYCHNVYSWPPTFGQGTKVEVK
For the molecule B1, the Kd in experiment [1] is 0.441 nM; in experiment [2] it was 1.12 nM; in experiment [3], 0.468 nM; in experiment [4], below 0.001 nM; in experiment [5] it was 0.443 nM.

B2: 80R_23 antibody (antibody, V domains shown)
VH: EVQLVQSGGGVVQPGKSLRLSCVASGFDFKSYAMHWVRQAPGKGLEWVAVISYDGSYKYYADSVKGRFTISRDNSKNTLYLQMNSLRAEDTAVYYCARDNAYYLDYWGQGTLVTVSS
VL: TTLTQSPATLSLSPGERATLSCHASEDIGTNLAWYQQKPGQAPRPLIFDGAQLAPGIPDRFSGSGSGTDFTLTISRLEPEDFAVYYCQQIYNWPPSFGQGTKVEVK
With B2, the Kd in experiment [3] was determined as 0.858 nM; in experiment [5] it was 0.625 nM.

B3: 80R_22 antibody (antibody, V domains shown)
VH: EVQLVQSGGGVVQPGKSLRLSCVASGFDFKSYAMHWVRQAPGKGLEWVAVISYDGSYKYYADSVKGRFTISRDNSKNTLYLQMNSLRAEDTAVYYCARDNAYYLDYWGQGTLVTVSS
VL: TTLTQSPATLSLSPGERATLSCHASEDIGTALAWYQQKPGQAPRPLIFYAAQLAPGIPDRFSGSGSGTDFTLTISRLEPEDFAVYYCAQYWSLPPTFGQGTKVEVK
In experiment [3], B3 showed a Kd of 1.39 nM.

B4: 80R_6 antibody (antibody, V domains shown)
VH: EVQLVQSGGGVVQPGKSLRLSCTASGFNFSEYAMHWVRQAPGKGLEWVAVISYDGSYKYYADSVKGRFTISRDNSKNTLYLQMNSLRAEDTAVYYCARDRSYYLDYWGQGTLVTVSS
VL: TTLTQSPATLSLSPGERATLSCKASEDIGSNLAWYQQKPGQAPRPLIFDAAQLAPGIPDRFSGSGSGTDFTLTISRLEPEDFAVYYCFQIYTWPPTFGQGTKVEVK
In turn, B4 came in with a Kd in experiment [3] of 4.16 nM.

B5: 80R_21 antibody (antibody, V domains shown)
VH: EVQLVQSGGGVVQPGKSLRLSCVASGFDFSKYAMHWVRQAPGKGLEWVAVISYDGSYKYYADSVKGRFTISRDNSKNTLYLQMNSLRAEDTAVYYCARDNAYYLDYWGQGTLVTVSS
VL: TTLTQSPATLSLSPGERATLSCKASEDIGTNLAWYQQKPGQAPRPLIFDAAILAPGIPDRFSGSGSGTDFTLTISRLEPEDFAVYYCMQIYNWPPSFGQGTKVEVK
For B5, the Kd in experiment [3] was found to be 3.1 nM.

B6: 80R_19 antibody (antibody, V domains shown)
VH: EVQLVQSGGGVVQPGKSLRLSCVASGFDFKSYAMHWVRQAPGKGLEWVAVISYDGSYKYYADSVKGRFTISRDNSKNTLYLQMNSLRAEDTAVYYCARDNAYYLDYWGQGTLVTVSS
VL: TTLTQSPATLSLSPGERATLSCHASEDIGTNLAWYQQKPGQAPRPLIFDAAQLAPGIPDRFSGSGSGTDFTLTISRLEPEDFAVYYCMQIHNWPPSFGQGTKVEVK
In experiment [3], B6 returned a Kd of 0.845 nM.

B7: 80R_7 antibody (antibody, V domains shown)
VH: EVQLVQSGGGVVQPGKSLRLSCQASGFDFKSYAMHWVRQAPGKGLEWVAVISYDGSIKHYADSVKGRFTISRDNSKNTLYLQMNSLRAEDTAVYYCARDRSYYLDYWGQGTLVTVSS
VL: TTLTQSPATLSLSPGERATLSCIASQDIGTALAWYQQKPGQAPRPLIFDGAILAPGIPDRFSGSGAGTDFTLTISRLEPEDFAVYYCMQTWTLPVTFGQGTKVEVK
As to B7, the Kd in experiment [3] worked out at 2.85 nM.

B8: 80R_10 antibody (antibody, V domains shown)
VH: EVQLVQSGGGVVQPGKSLRLSCVASGFDFKSYAMHWVRQAPGKGLEWVAVISYDGRYKYYADSVKGRFTISRDNSKNTLYLQMNSLRAEDTAVYYCARDRSYYLDYWGQGTLVTVSS
VL: TTLTQSPATLSLSPGERATLSCHASEDIGTALAWYQQKPGQAPRPLIFYAAQLAPGIPDRFSGSGSGTDFTLTISRLEPEDFAVYYCFQSWTLPLTFGQGTKVEVK
B8: in experiment [3], the Kd was determined as 1.82 nM.

B9: 80R_18 antibody (antibody, V domains shown)
VH: EVQLVQSGGGVVQPGKSLRLSCVASGFNFSEYAMHWVRQAPGKGLEWVAVISYDGSYKYYADSVKGRFTISRDNSKNTLYLQMNSLRAEDTAVYYCARDNAYYLDYWGQGTLVTVSS
VL: TTLTQSPATLSLSPGERATLSCQASEDIGTNLAWYQQKPGQAPRPLIFDAAQLAPGIPDRFSGSGSGTQFTLTISRLEPEDFAVYYCQQIYNWPPSFGQGTKVEVK
For B9, in experiment [3], binding was characterised by a dissociation constant (Kd) of 2.68 nM.

B10: 80R_8 antibody (antibody, V domains shown)
VH: EVQLVQSGGGVVQPGKSLRLSCVASGFDFKNYAMHWVRQAPGKGLEWVAVISYDGKYKYYADSVKGRFTISRDNSKNTLYLQMNSLRAEDTAVYYCARDRSYYLDYWGQGTLVTVSS
VL: TTLTQSPATLSLSPGERATLSCIASQDIGTNLAWYQQKPGQAPRPLIFDGAILAPGIPDRFSGSGAGTDFTLTISRLEPEDFAVYYCQQTYNWPPTFGQGTKVEVK
Molecule B10 gave a Kd in experiment [3] of 114 nM.

B11: 80R antibody (antibody, V domains shown)
VH: EVQLVQSGGGVVQPGKSLRLSCAASGFAFSSYAMHWVRQAPGKGLEWVAVISYDGSNKYYADSVKGRFTISRDNSKNTLYLQMNSLRAEDTAVYYCARDRSYYLDYWGQGTLVTVSS
VL: TTLTQSPATLSLSPGERATLSCRASQSVRSNLAWYQQKPGQAPRPLIYDASTRATGIPDRFSGSGSGTDFTLTISRLEPEDFAVYYCQQRSNWPPTFGQGTKVEVK
B11: the binding result in experiment [3] was “no binding”.
